In patent US20250333497A1 (University of California, published 2025):
Where a chain is given by its changes, count along the chain named.

T1: Full length PLXDC1 (PLXDC1-Full) (Homo sapiens (Human), UniProt Q8IUK5 19-500)
T1 construct: also called full PLXDC1 protein
T1 sequence: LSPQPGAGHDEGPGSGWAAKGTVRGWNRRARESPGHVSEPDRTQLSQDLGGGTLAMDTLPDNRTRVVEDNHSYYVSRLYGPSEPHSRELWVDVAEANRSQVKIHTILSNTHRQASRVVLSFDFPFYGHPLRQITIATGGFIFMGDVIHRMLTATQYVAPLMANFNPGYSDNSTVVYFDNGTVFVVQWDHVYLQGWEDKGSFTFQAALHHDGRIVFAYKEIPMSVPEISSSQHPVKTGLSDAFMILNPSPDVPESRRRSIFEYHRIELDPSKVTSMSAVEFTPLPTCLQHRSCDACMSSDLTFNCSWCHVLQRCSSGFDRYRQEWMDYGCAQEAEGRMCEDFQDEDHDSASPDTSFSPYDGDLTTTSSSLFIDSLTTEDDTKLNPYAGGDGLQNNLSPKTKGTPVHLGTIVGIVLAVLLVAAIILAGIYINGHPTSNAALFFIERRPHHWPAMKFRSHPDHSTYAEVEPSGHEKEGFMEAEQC

B1: A006 (antibody, V domains shown)
VH: QVQLVQSGAEVKKPGSSVKVSCKASGGTFSTEYISWVRQAPGQGLEWMGRIIPVLGITNYAQKFQGRVTITADESTSTAYMELSSLRSEDTAVYYCARHLGPPYLVTYSHGFDVWGQGTLVTVSS
VL: EIVMTQSPATLSVSPGERATLSCRASQSLGTNLAWYQQKPGQAPRLLIYGASTRATGIPARFSGSGSGTEFTLTISSLQSEDFAVYYCQQYYEAPPTFGQGTKVEIK
notes: VH/VL only; also called 3-G7
B2: A007 (antibody, V domains shown)
VH: EVQLLESGGGLVQPGGSLRLSCAASGFTFRNYAMSWVRQAPGKGLEWVSSISGGGINTYYADSVKGRFTISRDNSKNTLYLQMNSLRAEDTAVYYCARVRSYSGPGYFDYWGQGTLVTVSS
VL: B1 VL with E17D, Q27R, L29V, G30S, T31S, E93N, A94W, P96L
notes: VH/VL only; also called 8-A7
B3: A002 (antibody, V domains shown)
VH: EVQLLESGGGLVQPGGSLRLSCAASGFTFKNYAMSWVRQAPGKGLEWVSAISASGGYTYYADSVKGRFTISRDNSKNTLYLQMNSLRAEDTAVYYCARGRWGAFDYWGQGTLVTVSS
VL: QSVLTQPPSVSGAPGQRVTISCTGSSSNIGSGYDVHWYQQLPGTAPKLLIYGNRNRPSGVPDRFSGSKSGTSASLAITGLQAEDEADYYCQSYDSSLKTWVFGGGTKLTVL
notes: VH/VL only; also called 4-A8
B4: A003 (antibody, V domains shown)
VH: QVQLVESGGGVVQPGRSLRLSCAASGFTFRDYGMHWVRQAPGKGLEWVAVISYHGRNEYYANSVKGRFTISRDNSKNTLYLQMNSLRAEDTAVYYCARGAYGDDFDVWGQGTLVTVSS
VL: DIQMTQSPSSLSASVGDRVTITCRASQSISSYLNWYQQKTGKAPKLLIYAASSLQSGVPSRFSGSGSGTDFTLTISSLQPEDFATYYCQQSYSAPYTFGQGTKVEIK
notes: VH/VL only; also called 5-E2
B5: A004 (antibody, V domains shown)
VH: B4 VH with R30S, H54E, R56S, N62D, A100S, Y101E, D103S, D104G
VL: DIQMTQSPSSLSASVGDRVTITCRASQRISNYLNWYQQKPGKAPKLLIYAASSLQSGVPSRFSGSGSGTDFTLTISSLQPEDFATYYCQQSYSPPYTFGQGTKVEIK
notes: VH/VL only; also called 2-H2
B6: A005 (antibody, V domains shown)
VH: B4 VH with R30S, H54D, R56S, N57R, E58K, A100S, G102S, D104G
VL: B5 VL with R28S, N31R, P40T, A50G, P94T
notes: VH/VL only; also called 3-G6
B7: A001 (antibody, V domains shown)
VH: EVQLLESGGGLVQPGGSLRLSCAASGFTFSSYAMSWVRQAPGKGLEWVSTIYASGATTYYADSVKGRFTISRDNSKNTLYLQMNSLRAEDTAVYYCARLKLYHAAFDIWGQGTLVTVSS
VL: B5 VL with R28D, N31S, A50T, P94Y, Y96L
notes: VH/VL only; also called 3-C11

biological target: T1, Full length PLXDC1 (PLXDC1-Full); assay: staining of transfected cells (FIG. 3-4)
Source text: (§1) Both full length PLXDC1 and Domain A deleted PLXDC1 (PLXDC1-dA) have an epitope tag on the N-terminus.

| binding result | Binder |
| --- | --- |
| binds | B1 |
| binds | B2 |
| binds | B3 |
| binds | B4 |
| binds | B5 |
| binds | B6 |
| binds | B7 |

biological target: T2, domain A-deleted PLXDC1 (PLXDC1-dA) (Homo sapiens (Human), UniProt Q8IUK5 128-500); assay: staining of transfected cells (FIG. 3C-H)
T2 construct: also called mutant with Domain A deleted
Source text: as §1

| binding result | Binder |
| --- | --- |
| no binding | B3 |
| no binding | B4 |
| no binding | B7 |

biological target: T2, domain A-deleted PLXDC1 (PLXDC1-dA); assay: staining of transfected cells (FIG. 4A-H)
Source text: as §1

| binding result | Binder |
| --- | --- |
| no binding | B1 |
| no binding | B2 |
| no binding | B5 |
| no binding | B6 |
